Test results taken from paper PMC4739419, “Mutations in the nucleotide binding and hydrolysis domains of Helicobacter pylori MutS2 lead to altered biochemical activities and inactivation of its in vivo function” (BMC Microbiology, 2016).
Changes are numbered by the printed parent chain. Names and notes keep the numbering of the source.

B1: HpMutS2-E413A (enzyme)
chain: MSDAPKRSLNPTLMMNNNNTPPKPLEESLDLKEFIALFKTFFAKERDTIALENDLKQTFTYLNEVDAIGLPTPKSVKESDLIIIKLTKLGTLHLDEIFEIVKRLHYIVVLQNAFKTFTHLKFHERLNAIVLPPFFNDLIALFDDEGKIKQGANATLDALNESLNRLKKESVKIIHHYARSKELAPYLVDTQSHLKHGYECLLLKSGFSGAIKGVVLERSANGYFYLLPESAQKIAQKIAQIGNEIDCCIVEMCQTLSHSLQKHLLFLKFLFKEFDFLDSLQARLNFAKAYNLEFVMPSFTQKKMILENFSHPILKEPKPLNLKFEKSMLAVTGVNAGGKTMLLKSLLSAAFLSKHLIPMKINAHHSIIPYFKEIHAIINDPQNSANNISTFAGRMKQFSALLSKENMLLGVDAIELGTDADEASSLYKTLLEKLLKQNNQIIITTHHKRLSVLMAENKEVELLAALYDEEKERPTYTFLKGVIGKSYAFETALRYGVPHFLIEKAKTFYGEDKEKLNVLIENSSALERELKQKNEHLENALKEQEYLKNAWLLEMEKQKEIFHNKKLELEKSYQQALNILKSEVASKDTSSMHKEIHKASEILSKHKTNQEIPQIITNFQANEKARYKNESVLIVQILDKGYYWIETELGMRLKAHGSLLKKIQKPPKNKFKPPKTTIPKPKEASLRLDLRGQRSEEALDLLDAFLNDALLGGFEEVLICHGKGSGILEKFVKEFLKNHPKVVSFSDAPINLGGSGVKIVKL
notes: also called Walker-B mutant
B2: HpMutS2-G338R (protein)
chain: B1 chain with G338R, A413E
B3: HpMutS2: Helicobacter pylori MutS2 (1-762), C-terminally His6-tagged wild-type protein, nuclease and ABC ATPase (protein)
chain: B1 chain with A413E
modifications: left off: His6, C-terminal, state not stated
notes: Helicobacter pylori MutS2 (1-762), C-terminally His6-tagged wild-type protein, nuclease and ABC ATPase

Legend:
[1] = ATPase assay of HpMutS2 and mutants (TLC, ATP [γ-32P] tracer); type: biochemical; conditions: for kcat value, fold reduced compared to the wild-type protein / V max / k cat: ATP hydrolysis; for V max / k cat: Mg2+ 5 mM, 37 °C, Michaelis-Menten analysis; for Km value, fold higher compared to the wild-type protein: for ATP; for effect of DNA on ATPase activity: 1 μM
Source text: Fig. 1 a Schematic representation of HpMutS2 variants used in this study. Walker-A and Walker-B motifs of HpMutS2 were identified by multiple sequence alignment of MutS2 proteins from different bacteria using Clustal Omega (http://www.ebi.ac.uk/Tools/msa/clustalo/). The mutations in the walker-A and Walker-B motifs were introduced using site directed mutagenesis. The mutated amino acids are highlighted in red. All the proteins were C-terminally His6-tagged. The LDLK motif and Smr domain are conserved nuclease sites of HpMutS2. b Effect of DNA substrates on ATPase activity of HpMutS2. HpMutS2 (45 nM) was incubated with increasing concentrations of ATP [0, 10, 20, 40, 60, 80, 100, 200, 400, 600, 800, and 1000 (μM)]. DNA substrates (1 μM) were added separately to the reaction mixtures. After incubation at 37 °C for 30 min the reactions were stopped by EDTA (50 mM) and the products were separated by TLC. ATP [γ-^32P] was used as tracer to monitor the product formation. Reaction velocities were calculated by quantifying the proportion of products formed to un-reacted substrate divided by incubation time TEXT PRINTED IN THE PICTURE: (A) HpMutS2 (1-762): Mol. wt. (kDa): 87.8 | (A) HpMutS2-G338R (1-762): Mol. wt. (kDa): 87.9 | (A) HpMutS2-E413A (1-762): Mol. wt. (kDa): 87.7 | (A) HpMutS2ΔSmr (1-683): Mol. wt. (kDa): 79.3 | (A) HpMutS2ΔSmr-D30A (1-683): Mol. wt. (kDa): 79.2 | (A) HpSmr (684-762): Mol. wt. (kDa): 9.6
To delineate the characteristics of the ATPase activity of HpMutS2, we initially determined the metal ion requirement for ATP hydrolysis by HpMutS2. Purified HpMutS2 was incubated with excess of cold ATP (100 μM) with or without metal ions (5 mM each), and ATP hydrolysis monitored by thin layer chromatography using radiolabeled ATP [γ-^32P] as tracer. […] Based on the above observations, all subsequent ATPase assays were performed in presence of Mg^2+ (5 mM) at 37 °C using the protein concentrations in the linear range of enzymatic activity for 30 min or below.
ATPase activity of HpMutS2 and mutants was carried out in 10 μl of reaction volume containing 1X buffer A (50 mM Tris pH 8.0, 50 mM NaCl, and 1 mM DTT) containing MgCl2 (5 mM), and ATP [γ-^32P] was used as a tracer. A 1:1000 dilution of 25 μC ATP [γ-^32P] (3500 Ci/mmol) was used with indicated amount of the cold ATP in all the assays. All reactions were carried out at 37 °C for indicated time and terminated by the addition of EDTA (50 mM). 1 μl aliquot of each reaction mixture was spotted on a polyethylene cellulose TLC sheets. The reaction components [ATP and inorganic phosphate (Pi)] were separated by thin layer chromatography (TLC) using 0.4 M […] and 0.1 mM EDTA as mobile phase. The dried TLC sheets were visualized by phosphorimaging and quantified using Image Gauge (Version 3.0). The kinetic parameters were determined using the Michaelis–Menten equation by non-linear regression of plot of rate of product formation versus substrate concentration using GraphPad Prism 5 software. Reaction velocities were calculated by quantifying the proportion of products formed to un-reacted substrate divided by incubation time. To determine the effect of DNA on ATPase activity 1 μM of DNA substrates were added separately to the reaction mixture.

chymotrypsin = assay: Limited proteolysis with chymotrypsin; conditions: 37 °C; for effect of nucleotide pre-incubation on proteolysis: pre-incubation with ADP, ATP or ATPγS 1 mM, 15 min; for susceptibility to proteolysis compared to the wild-type protein: protein 4 μM, chymotrypsin 1.25 ng, 30 min, no nucleotide
Method: Fig. 4 Nucleotide and mutation induced conformational changes in HpMutS2. a Limited proteolysis. Proteins (4 μM) either free or pre-incubated with nucleotides (1 mM) were incubated with chymotrypsin (1.25 ng) for 30 min at 37 °C. All proteolysis reactions were performed in 1X buffer A lacking magnesium. Reactions were stopped by adding a protease inhibitor cocktail and the products were separated on SDS-PAGE (10 %). Lane M: Molecular weight marker. b Thermal stability profiles of wild-type HpMutS2, HpMutS2-G338R, and HpMutS2-E413A. Proteins (1 μM) dialyzed in 50 mM Tris-Cl and 100 mM NaCl were subjected to thermal denaturation and spectra were recorded at 222 nm using Jasco-815 spectropolarimeter
HpMutS2 (4 μM) was incubated with chymotrypsin (1.25 ng) or in buffer A lacking magnesium at 37 °C for 30 min. The reactions were stopped by addition of protease inhibitor cocktail (Sigma) and the proteolyzed products were separated on SDS-PAGE (10 %). Nucleotide cofactors (1 mM) were pre-incubated with the proteins for 15 min at 37 °C before addition of chymotrypsin. The heat denaturation of proteins was performed by heating them at 95 °C for 10 min. All the reactions were performed in 1X buffer A. Protein bands were detected by staining with Coomassie Brilliant Blue.

[2] = comparison with literature value

| Molecule | kcat value, fold reduced compared to the wild-type protein [1] | V max [1] [µM/min] | k cat [1] [s⁻¹] | Km value, fold higher compared to the wild-type protein [1] | effect of nucleotide pre-incubation on proteolysis (chymotrypsin) | susceptibility to proteolysis compared to the wild-type protein (chymotrypsin) | effect of DNA on ATPase activity ([1]; 3′- or 5′-overhangs) | Km value, fold higher compared to T. thermophilus MutS1 [1, 2] | Km value, fold higher compared to Thermus thermophilus MutS2 (TtMutS2) [1, 2] | kcat value, fold higher compared to T. thermophilus MutS1 [1, 2] | kcat value, fold higher compared to Thermus thermophilus MutS2 (TtMutS2) [1, 2] | effect of DNA on ATPase activity ([1]; linear DNA substrates ssDNA, dsDNA) |
| --- | --- | --- | --- | --- | --- | --- | --- | --- | --- | --- | --- | --- |
| B1 | ~ 10 fold | 0.19 ± 0.03 | 0.0703 ± 0.011 | comparable | only a slight effect | much more resistant |  |  |  |  |  |  |
| B2 | ~ 3 fold | 0.64 ± 0.15 | 0.237 ± 0.0555 | ~ 2.3 fold | only a slight effect | slightly more susceptible to proteolysis |  |  |  |  |  |  |
| B3 |  | 1.88 ± 0.13 | 0.6962 ± 0.048 |  | proteolysis was significantly reduced |  | negligible increases | ~ 8 fold | ~ 9 fold | ~ 4.5 fold | ~ 20 fold | no effect |
